Reference: PMC10976746, “Iguratimod, an allosteric inhibitor of macrophage migration inhibitory factor (MIF), prevents mortality and oxidative stress in a murine model of acetaminophen overdose” (Molecular Medicine, 2024)

Target: T1, Human macrophage migration inhibitory factor (MIF) (human), P14174
T1 chain: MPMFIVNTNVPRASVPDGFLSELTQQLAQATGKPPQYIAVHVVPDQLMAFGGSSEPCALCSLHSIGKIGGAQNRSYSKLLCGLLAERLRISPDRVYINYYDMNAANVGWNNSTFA
Test: crystal structure; MIF (~18 mg/mL) co-crystallised with the small molecule T-614 at 1:3 protein-inhibitor molar ratio; hanging drop vapor diffusion; 20 mM Tris HCl pH 7.5, 2 M (NH4)2SO4, 3% 2-propanol; 20 C
Details: remark: other sources report otherwise

B1: Human macrophage migration inhibitory factor (MIF), P14174 1-115 (natural protein)
chain: MPMFIVNTNVPRASVPDGFLSELTQQLAQATGKPPQYIAVHVVPDQLMAFGGSSEPCALCSLHSIGKIGGAQNRSYSKLLCGLLAERLRISPDRVYINYYDMNAANVGWNNSTFA
**Q.** B1 was tested. Which stoichiometry N did it give?
**A.** The stoichiometry N was 3.
